Experimental data reported in patent US20240252534A1 (AUTOLUS, published 2024).
Values belong to the binder of their own block, whether it stands above or below them.

What was measured:
[1] = biological target: T1, human PSMA expressed on cells (human, UniProt Q04609 1-750); test: flow cytometry, MFI against concentration, SupT1-PSMA clone 30 (high)
T1 construct: whole, on cells; also called SupT1-PSMA; SupT1 cells expressing PSMA

[2] = biological target: T2, Recombinant PSMA-His (sino biologicals) (UniProt Q04609 44-750); test: SPR, Biacore T200; VHH-Fc captured on Protein A chip, PSMA-His as analyte, 1:1 Langmuir fit
T2 construct: also called soluble PSMA; recombinant soluble PSMA; not shown: His tag
Protocol: (§1) Kinetic affinity for soluble PSMA was determined using Biacore T200 instrument. Recombinant purified antibodies were captured on a Protein A chip #7 at 10 μl/min for 60 s, aiming at 100 RU. Recombinant PSMA-His (sino biologicals) dialysed in HBS-P+ buffer was used as analyte from 1 μM with 1:2 serial dilutions for 10 points and flown at 30 μl/min for 150 s with 300 s dissociation time. A double reference subtraction was applied. Sensograms fitted with 1:1 Langmuir model.
Affinity was determined by surface plasmon resonance on a Biacore T200 instrument against recombinant soluble PSMA. Affinities were measured in the nM range for both antibodies (Table 3)

[3] = biological target: T2, Recombinant PSMA-His (sino biologicals); test: SPR, Biacore T200, pH 6; antibody captured on Protein A chip, PSMA-His as analyte, 1:1 Langmuir fit
Protocol: as §1, with “soluble PSMA at different pH was determined” for “soluble PSMA was determined”, “A chip #6, pre-equilibrated the required PH (pH7.4, pH7, pH6.5 and pH6) using buffered HBS-P+, at 10” for “A chip #7 at 10”, “dialysed in HBS-P+buffer and adjusted to the required PH was used” for “dialysed in HBS-P+ buffer was used”

[4] = biological target: T2, Recombinant PSMA-His (sino biologicals); test: SPR, Biacore T200, pH 7; antibody captured on Protein A chip, PSMA-His as analyte, 1:1 Langmuir fit
Protocol: as §1, with “soluble PSMA at different pH was determined” for “soluble PSMA was determined”, “A chip #6, pre-equilibrated the required PH (pH7.4, pH7, pH6.5 and pH6) using buffered HBS-P+, at 10” for “A chip #7 at 10”, “dialysed in HBS-P+buffer and adjusted to the required PH was used” for “dialysed in HBS-P+ buffer was used”

[5] = biological target: T2, Recombinant PSMA-His (sino biologicals); test: SPR, Biacore T200, pH 6.5; antibody captured on Protein A chip, PSMA-His as analyte, 1:1 Langmuir fit
Protocol: as §1, with “soluble PSMA at different pH was determined” for “soluble PSMA was determined”, “A chip #6, pre-equilibrated the required PH (pH7.4, pH7, pH6.5 and pH6) using buffered HBS-P+, at 10” for “A chip #7 at 10”, “dialysed in HBS-P+buffer and adjusted to the required PH was used” for “dialysed in HBS-P+ buffer was used”

[6] = biological target: T2, Recombinant PSMA-His (sino biologicals); test: SPR, Biacore T200, pH 7.4; antibody captured on Protein A chip, PSMA-His as analyte, 1:1 Langmuir fit
Protocol: as §1, with “soluble PSMA at different pH was determined” for “soluble PSMA was determined”, “A chip #6, pre-equilibrated the required PH (pH7.4, pH7, pH6.5 and pH6) using buffered HBS-P+, at 10” for “A chip #7 at 10”, “dialysed in HBS-P+buffer and adjusted to the required PH was used” for “dialysed in HBS-P+ buffer was used”

[7] = biological target: T1, human PSMA expressed on cells; test: flow cytometry histograms, detection aMu-Fc 647, concentration and axis values not given

T2 sequence (Q04609 44-750 limits assumed): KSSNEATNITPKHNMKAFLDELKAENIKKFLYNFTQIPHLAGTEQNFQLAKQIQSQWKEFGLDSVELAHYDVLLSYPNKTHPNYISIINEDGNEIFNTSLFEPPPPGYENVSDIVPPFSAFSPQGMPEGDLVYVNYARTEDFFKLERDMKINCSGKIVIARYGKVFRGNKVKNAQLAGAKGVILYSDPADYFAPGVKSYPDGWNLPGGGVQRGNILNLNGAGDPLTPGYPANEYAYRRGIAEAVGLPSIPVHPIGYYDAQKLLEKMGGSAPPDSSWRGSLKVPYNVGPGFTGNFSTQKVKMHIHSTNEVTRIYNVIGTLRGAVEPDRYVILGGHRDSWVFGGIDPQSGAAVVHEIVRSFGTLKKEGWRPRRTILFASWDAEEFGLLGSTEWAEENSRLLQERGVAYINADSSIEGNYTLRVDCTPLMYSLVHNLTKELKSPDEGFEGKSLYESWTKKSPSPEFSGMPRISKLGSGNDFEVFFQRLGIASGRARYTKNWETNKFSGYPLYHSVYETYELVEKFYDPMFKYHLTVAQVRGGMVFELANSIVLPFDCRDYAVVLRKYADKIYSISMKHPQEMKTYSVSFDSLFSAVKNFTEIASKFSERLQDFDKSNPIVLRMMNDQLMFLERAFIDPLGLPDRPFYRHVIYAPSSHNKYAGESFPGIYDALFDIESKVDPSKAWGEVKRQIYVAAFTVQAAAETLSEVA
T1 sequence (Q04609 whole entry): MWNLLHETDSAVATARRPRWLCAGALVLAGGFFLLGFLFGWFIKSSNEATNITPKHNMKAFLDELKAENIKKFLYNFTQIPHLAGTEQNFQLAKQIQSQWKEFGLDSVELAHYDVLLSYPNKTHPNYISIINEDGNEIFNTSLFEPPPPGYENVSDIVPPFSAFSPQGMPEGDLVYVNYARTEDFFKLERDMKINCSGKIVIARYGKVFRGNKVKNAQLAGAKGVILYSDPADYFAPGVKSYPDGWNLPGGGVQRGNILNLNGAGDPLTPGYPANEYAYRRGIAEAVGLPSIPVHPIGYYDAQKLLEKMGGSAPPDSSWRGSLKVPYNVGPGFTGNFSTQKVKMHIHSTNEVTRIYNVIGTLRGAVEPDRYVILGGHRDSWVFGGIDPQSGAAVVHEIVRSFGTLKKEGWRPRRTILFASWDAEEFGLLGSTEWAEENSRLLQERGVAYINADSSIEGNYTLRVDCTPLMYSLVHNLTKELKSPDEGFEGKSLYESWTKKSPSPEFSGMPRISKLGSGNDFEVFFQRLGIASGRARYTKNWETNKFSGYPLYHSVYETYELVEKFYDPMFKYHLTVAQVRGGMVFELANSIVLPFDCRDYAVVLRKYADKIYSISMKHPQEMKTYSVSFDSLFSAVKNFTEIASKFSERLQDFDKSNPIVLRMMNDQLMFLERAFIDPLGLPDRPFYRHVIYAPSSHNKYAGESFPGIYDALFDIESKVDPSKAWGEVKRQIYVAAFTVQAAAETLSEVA

EC50 (read off the curve) [1]: ~1 µg/mL
B1: dAb clone B8, C Myc tagged (VHH)
VHH: QVQLQQSGGGLVQAGGSLRLSCAASGRTYGRYVMGWFRQIPGKEREFVAAISWSGSNTNYADSVKGRFTISRDNAKNTLYLQMNSLKPEDTAVYYCAASGQWIIPTTARGYDDWGQGTQVTVSS
notes: Monomeric dAb from IPTG-induced TG1 supernatant, detected with anti-C Myc; also called B08; not shown: C-Myc tag

Kd [2]: 212 nM
B2: B08 VHH-Fc (Fc fusion)
chain: B1 VHH
notes: also called B8; clone B8; not shown: Fc part of the VHH-Fc format

EC50 (read off the curve) [1]: ~0.7 µg/mL
B4: dAb clone G7, C Myc tagged (VHH)
VHH: QVQLQESGGGSVQAGGSLRLSCAASERTFSTYGTGWFRQAPGKEREFVAGISGRGGYTSYIDSVKGRFTTSRDNAKNTVYLQMNSLKPEDTAVYYCAADRRMVWGTVRSPDEYDSWGQGTQVTVSS
notes: Monomeric dAb from IPTG-induced TG1 supernatant, detected with anti-C Myc; also called G07; not shown: C-Myc tag

binding result [7]: binds
B6: NGS2 dAb in murine IgG2A-Fc format (Fc fusion)
chain: QVQLQESGGGWVQAGGSLRLSCAASGRTSRTYTMGWFRQAPGKDGVFVAGITWSTWSSDKTQYLDSVNSRFTISRDNARNTVYLQMNNLKPEDTAVYYCAATPRYYGVAVPTTRGPYDYWGQGTQVTVSS
notes: also called clone 2; dAb 2; not shown: murine IgG2A Fc

Second part, the binder before the results:

B3: 7A12 humanised (antibody, V domains shown)
VH: QVQLVQSGAEVKKPGASVKVSCKASGYTFTSSWMNWVRQAPGQGLEWMGRIYPGDGDTNYAQKFQGRVTMTRDTSISTAYMELSRLRSDDTAVYYCARGTGYLWYFDVWGQGTMVTVSS
VL: EIVLTQSPATLSLSPGERATLSCRASQDINENLAWYQQKPGQAPRLLIYYTSNRATGIPARFSGSGSGRDFTLTISSLEPEDFAVYYCQQYDNLPFTFGQGTKVEIKR
notes: Tested as 'recombinant purified antibody' captured on a Protein A chip; also called hu7A12; AU number 42396
Kd [3]: 0.532 nM
Kd [4]: 3.3 nM
Kd [5]: 1.71 nM
Kd [6]: 3.66 nM

B5: G07 VHH-Fc (Fc fusion)
chain: B4 VHH
notes: also called G7; clone G7; not shown: Fc part of the VHH-Fc format
Kd [2]: 316 nM

B7: 7A12 (antibody, V domains shown)
VH: QFQLQQSGPELVKPGASVKISCKASGYAFSSSWMNWVRQRPGKGLEWIGRIYPGDGDTTYNGNFKDKATLTAAKSSSTAYIQINSLTSEDSAVYFCARGTGYLWYFDVWGAGTTVTVSS
VL: DIQMTQSPSSLSTSLGGKVTITCKASQDINENVAWYQHKPGKGPRLLIWYTSALQSGIPSRFSGSGSGRDYSFSISNLEPEDIATYYCQQYDNLPFTFGSGTKLEIKR
notes: Tested as 'recombinant purified antibody' captured on a Protein A chip; also called mu7A12; AU number 30531
Kd [3]: 0.574 nM
Kd [4]: 1.77 nM
Kd [5]: 1.02 nM
Kd [6]: 2.29 nM
